Laboratory results: US9327008B2, “Cell-permeant peptide-based inhibitor of kinases” (Purdue Research Foundation, priority 2008, dated 2016)

Experiments:
Type in all cases: biochemical
MK2 = MK2 (Homo sapiens, UniProt P49137); experiment: Millipore radiometric IC50 and kinase activity assay, MK2; set-up: purchased Millipore (assay service); details: for MK2 Kinase Activity: SD of 2 samples
Description: (§1) A commercial radiometric assay service (Millipore, Billerica, Mass.) was used to test the specificity and potency of peptides containing a coupled transduction domain and therapeutic domain, hereinafter “complete peptides”). In these assays, if the kinase is not inhibited by an inhibitor peptide, a positively charged substrate is phosphorylated with a radiolabeled phosphate group from an ATP.
(§2) IC50 values for inhibitor peptides were determined using Millipore's IC50Profiler Express service. The IC50 value was estimated from a 10-point curve of one-half log dilutions. For peptides tested for specificity, the concentration of the peptides that inhibited approximately 95% of MK2 activity was chosen to profile against a battery of kinases related to MK2, cell viability, or human disease from MilliporeKinaseProfiler service. In both assays, compounds were supplied in dimethylsulfoxide (DMSO). Every kinase activity measurement was conducted in duplicate.
(§3) Therapeutic inhibitor peptides were assayed for activity against human kinases related to MK2, cell viability, or human disease. The assays were performed using concentrations of therapeutic inhibitor peptides that yielded 2% to 8% of normal MK2 activity. Error is reported as the standard deviation between 2 samples, and “c” is rat AMPK whereas all other kinases used are human kinases.
(§4) Additional therapeutic inhibitor peptide variants were assayed for activity against several human kinases representative of several families of kinases. These kinases included: MK2; MK3; CaMKI (calcium/calmodulin-dependent protein kinase); PRAK (p38 regulated/activated protein kinase, also known as mitogen-activated protein kinase activated protein kinase 5 (MAPKAPK5)); SAPK2a (p38α); IRAK4 (IL-1 receptor (IL-1R)-associated kinase); MLCK (myosin light chain kinase); PKBβ (protein kinase B); PCKδ (protein kinase C); and ROCK-I (Rho-associated serine/threonine kinase).

ROCK-I = target: T1, ROCK-I (Homo sapiens, UniProt Q13464); experiment: Millipore radiometric kinase activity assay, ROCK-I (h); details: for ROCK-1 Kinase Activity: peptide inhibitor 300 μM, SD of 2 samples
T1 construct: purchased Millipore (radiometric assay service)
Description: as §1
(§5) In a final reaction volume of 25 μL, ROCK-I (b) (5-10 mU) is incubated with 8 mM MOPS pH 7.0, 0.2 mM EDTA, 30 μM […] [SEQ ID NO: 63], 10 mM MgAcetate and [γ-^33P-ATP] (specific activity approx. 500 cpm/pmol, concentration as required). The reaction is initiated by the addition of the MgATP mix. After incubation for 40 minutes at room temperature, the reaction is stopped by the addition of 5 μL of a 3% phosphoric acid solution. 10 μL of the reaction is then spotted onto a P30 filtermat and washed three times for 5 minutes in 75 mM phosphoric acid and once in methanol prior to drying and scintillation counting.
as §2, §3, §4

CaMKI = target: T2, CaMKI (Homo sapiens, UniProt Q14012); experiment: Millipore radiometric kinase activity assay, CaMKI (h); details: for CaMK1 Kinase Activity: peptide inhibitor 300 μM, SD of 2 samples
T2 construct: purchased Millipore (assay service)
Description: as §1
as §5, with “μL, CaMKI (h)” for “μL, ROCK-I (b)”, “EDTA, 0.5 mM CaCl2, 16 μg/mL calmodulin, 250” for “EDTA, 30”, “NO: 52],” for “NO: 63],”
as §2, §3, §4

MK3 = target: T3, MK3 (Homo sapiens, UniProt Q16644); experiment: Millipore radiometric kinase activity assay, MK3; details: SD of 2 samples
T3 construct: purchased Millipore (assay service)
Description: as §1, §2, §4

IRAK4 = target: T4, IRAK4 (Homo sapiens, UniProt Q9NWZ3); experiment: Millipore radiometric kinase activity assay, IRAK4 (h)
T4 construct: purchased Millipore (assay service)
T4 sequence (Q9NWZ3 1-460): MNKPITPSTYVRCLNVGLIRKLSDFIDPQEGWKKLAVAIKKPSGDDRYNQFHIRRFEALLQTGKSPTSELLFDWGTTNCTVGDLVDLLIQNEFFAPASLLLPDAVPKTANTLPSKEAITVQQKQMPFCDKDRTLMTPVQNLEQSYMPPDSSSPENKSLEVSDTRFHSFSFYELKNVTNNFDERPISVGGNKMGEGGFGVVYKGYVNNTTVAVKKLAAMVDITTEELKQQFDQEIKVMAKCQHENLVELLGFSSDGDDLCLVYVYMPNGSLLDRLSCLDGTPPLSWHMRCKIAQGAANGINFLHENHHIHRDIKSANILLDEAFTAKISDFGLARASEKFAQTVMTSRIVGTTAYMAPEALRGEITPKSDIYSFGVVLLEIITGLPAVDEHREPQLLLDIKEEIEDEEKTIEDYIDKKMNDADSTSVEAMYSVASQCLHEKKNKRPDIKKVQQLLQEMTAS
Description: as §1
In a final reaction volume of 25 μL, IRAK4 (h) (5-10 mU) is incubated with 8 mM MOPS pH 7.0, 0.2 mM EDTA, 0.33 mg/mL myelin basic protein, 10 mM MgAcetate and [γ-^33P-ATP] (specific activity approx. 500 cpm/pmol, concentration as required). The reaction is initiated by the addition of the MgATP mix. After incubation for 40 minutes at room temperature, the reaction is stopped by the addition of 5 μL of a 3% phosphoric acid solution. 10 μl of the reaction is then spotted onto a P30 filtermat and washed three times for 5 minutes in 75 mM phosphoric acid and once in methanol prior to drying and scintillation counting.
as §2, §3, §4

MLCK = target: T5, MLCK (Homo sapiens, UniProt Q9H1R3); experiment: Millipore radiometric kinase activity assay, MLCK (h); details: for MLCK Kinase Activity: peptide inhibitor 300 μM, SD of 2 samples
T5 construct: purchased Millipore (radiometric assay service)
Description: as §1
as §5, with “μL, MLCK (h)” for “μL, ROCK-I (b)”, “EDTA, 0.5 mM CaCl2, 16 μg/mL calmodulin, 250” for “EDTA, 30”, “NO: 52],” for “NO: 63],”
as §2, §3, §4

[1] = peptide 100 μM, listed as KAFAKLAARLYRLARQLGVAA
[2] = peptide 30 μM, listed as WLRRIKAWLRRI-

Sequence of MK2 (P49137 whole entry, the tested form may be a part): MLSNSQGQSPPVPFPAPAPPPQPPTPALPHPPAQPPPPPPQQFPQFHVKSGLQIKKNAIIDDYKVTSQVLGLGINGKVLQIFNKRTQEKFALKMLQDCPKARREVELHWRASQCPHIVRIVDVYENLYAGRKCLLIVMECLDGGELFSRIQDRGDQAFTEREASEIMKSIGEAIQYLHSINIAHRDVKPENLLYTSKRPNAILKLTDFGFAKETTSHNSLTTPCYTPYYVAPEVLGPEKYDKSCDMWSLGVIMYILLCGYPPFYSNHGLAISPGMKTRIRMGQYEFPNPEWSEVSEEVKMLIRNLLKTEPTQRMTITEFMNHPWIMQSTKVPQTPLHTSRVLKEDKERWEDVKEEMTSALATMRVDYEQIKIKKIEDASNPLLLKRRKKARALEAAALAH
T3 sequence (Q16644 whole entry): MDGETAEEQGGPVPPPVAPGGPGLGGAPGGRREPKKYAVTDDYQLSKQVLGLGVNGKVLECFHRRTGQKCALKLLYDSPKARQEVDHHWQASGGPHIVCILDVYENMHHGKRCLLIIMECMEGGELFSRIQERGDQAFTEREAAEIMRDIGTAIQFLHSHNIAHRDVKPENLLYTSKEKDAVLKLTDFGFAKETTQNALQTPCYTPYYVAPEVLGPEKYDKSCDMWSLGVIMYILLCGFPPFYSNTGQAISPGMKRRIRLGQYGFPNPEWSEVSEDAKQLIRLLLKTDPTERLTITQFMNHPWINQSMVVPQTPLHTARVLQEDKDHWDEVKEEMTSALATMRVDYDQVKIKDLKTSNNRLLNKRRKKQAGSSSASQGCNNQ
T1 sequence (Q13464 whole entry): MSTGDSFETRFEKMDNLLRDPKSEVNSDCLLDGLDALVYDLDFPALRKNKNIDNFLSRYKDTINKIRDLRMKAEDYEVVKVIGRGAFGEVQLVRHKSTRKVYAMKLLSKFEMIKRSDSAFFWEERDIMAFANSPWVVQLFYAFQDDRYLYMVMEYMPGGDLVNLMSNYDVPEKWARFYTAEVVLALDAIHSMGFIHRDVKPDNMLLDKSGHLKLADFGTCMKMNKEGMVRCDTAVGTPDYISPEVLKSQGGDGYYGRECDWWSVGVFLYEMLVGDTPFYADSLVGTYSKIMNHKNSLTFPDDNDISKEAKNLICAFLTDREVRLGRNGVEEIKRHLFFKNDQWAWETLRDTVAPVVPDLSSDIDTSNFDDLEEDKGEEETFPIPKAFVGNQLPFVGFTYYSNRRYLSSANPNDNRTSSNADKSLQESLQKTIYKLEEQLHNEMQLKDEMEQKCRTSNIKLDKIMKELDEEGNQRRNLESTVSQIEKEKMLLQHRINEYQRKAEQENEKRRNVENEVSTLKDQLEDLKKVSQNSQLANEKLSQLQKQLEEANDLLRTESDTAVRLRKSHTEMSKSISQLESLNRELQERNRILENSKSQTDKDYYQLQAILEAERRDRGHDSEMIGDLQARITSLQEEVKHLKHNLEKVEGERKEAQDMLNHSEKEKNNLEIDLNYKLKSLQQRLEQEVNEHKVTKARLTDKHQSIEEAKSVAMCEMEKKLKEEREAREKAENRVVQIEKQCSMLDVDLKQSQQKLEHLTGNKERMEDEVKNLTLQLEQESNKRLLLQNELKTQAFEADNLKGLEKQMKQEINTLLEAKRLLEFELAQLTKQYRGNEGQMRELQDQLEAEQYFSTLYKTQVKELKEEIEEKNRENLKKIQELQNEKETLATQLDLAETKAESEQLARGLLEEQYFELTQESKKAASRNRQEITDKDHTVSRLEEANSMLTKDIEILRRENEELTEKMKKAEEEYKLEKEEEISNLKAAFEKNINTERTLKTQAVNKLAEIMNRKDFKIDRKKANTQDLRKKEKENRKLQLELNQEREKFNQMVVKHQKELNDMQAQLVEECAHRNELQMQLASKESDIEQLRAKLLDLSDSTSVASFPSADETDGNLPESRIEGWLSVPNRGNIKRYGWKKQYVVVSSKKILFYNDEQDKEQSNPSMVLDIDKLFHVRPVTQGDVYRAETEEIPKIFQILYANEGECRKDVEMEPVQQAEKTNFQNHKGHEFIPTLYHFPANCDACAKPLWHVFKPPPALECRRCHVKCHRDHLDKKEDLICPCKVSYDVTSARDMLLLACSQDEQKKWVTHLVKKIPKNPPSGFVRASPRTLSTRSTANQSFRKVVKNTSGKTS

## FAKLAARLYRKALARQLGVAA
MK2; peptide inhibitor 100 μM
  MK2 Kinase Activity: 5(2) %
ROCK-I; peptide 100 μM
  ROCK-1 Kinase Activity (%) (+SD %): 25(2) %
CaMKI; peptide 100 μM
  CaMKI Kinase Activity (%) (+SD %): 0(2) %
MK3; peptide inhibitor 100 μM
  MK3 Kinase Activity: 10(1) %
IRAK4; peptide 100 μM
  IRAK4 Kinase Activity (%) (+SD %): 13(4) %
MLCK; peptide 100 μM
  MLCK Kinase Activity (%) (+SD %): 1(1) %

## KAFAKLAARLYRKALARQLGVAA
MK2; peptide inhibitor 100 μM
  MK2 Kinase Activity: 8(1) %
ROCK-I; peptide 100 μM
  ROCK-1 Kinase Activity (%) (+SD %): 29 (0) %
ROCK-I; [1]
  ROCK-1 Kinase Activity (%) (+SD %): 29(0) %
CaMKI; peptide 100 μM
  CaMKI Kinase Activity (%) (+SD %): 0 (2) %
CaMKI; [1]
  CaMKI Kinase Activity (%) (+SD %): 0(2) %
MK3; peptide inhibitor 100 μM
  MK3 Kinase Activity: 17(1) %
IRAK4; peptide 100 μM
  IRAK4 Kinase Activity (%) (+SD %): 16 (2) %
IRAK4; [1]
  IRAK4 Kinase Activity (%) (+SD %): 16(2) %
MLCK; peptide 100 μM
  MLCK Kinase Activity (%) (+SD %): 2 (0) %
MLCK; [1]
  MLCK Kinase Activity (%) (+SD %): 2(0) %

## WLRRIKAWLRRIKALNRQLGVAA
MK2; peptide inhibitor 30 μM
  MK2 Kinase Activity: 2(1) %
MK2; same therapeutic domain KALNRQLGVAA
  fold lower IC50 than the therapeutic inhibitor peptide incorporating PTD YARAAARQARA (FIG. 2): greater than 30 fold
ROCK-I; peptide 30 μM
  ROCK-1 Kinase Activity (%) (+SD %): 0(1) %
ROCK-I; [2]
  ROCK-1 Kinase Activity (%) (+SD %): 0 (1) %
ROCK-I; peptide 100 μM
  ROCK-1 Kinase Activity (%) (+SD %): 25 (2) %
CaMKI; peptide 30 μM
  CaMKI Kinase Activity (%) (+SD %): 9(1) %
CaMKI; [2]
  CaMKI Kinase Activity (%) (+SD %): 9 (1) %
CaMKI; peptide 100 μM
  CaMKI Kinase Activity (%) (+SD %): 0 (2) %
MK3; peptide inhibitor 30 μM
  MK3 Kinase Activity: 16(2) %
IRAK4; peptide 30 μM
  IRAK4 Kinase Activity (%) (+SD %): 12(1) %
IRAK4; [2]
  IRAK4 Kinase Activity (%) (+SD %): 12 (1) %
IRAK4; peptide 100 μM
  IRAK4 Kinase Activity (%) (+SD %): 13 (4) %
MLCK; peptide 30 μM
  MLCK Kinase Activity (%) (+SD %): 4(1) %
MLCK; [2]
  MLCK Kinase Activity (%) (+SD %): 4 (1) %
MLCK; peptide 100 μM
  MLCK Kinase Activity (%) (+SD %): 1 (1) %

## YARAAARQARAKALARQLGVAA
MK2; peptide inhibitor 300 μM
  MK2 Kinase Activity: −7(0) %
ROCK-I
  ROCK-1 Kinase Activity: 27(4) %
CaMKI
  CaMK1 Kinase Activity: 2(0) %
MK3; peptide inhibitor 300 μM
  MK3 Kinase Activity: 5(1) %
MLCK
  MLCK Kinase Activity: 9(0) %

## YARAAARQARAKALNRQLGVAA
MK2; peptide inhibitor 300 μM
  MK2 Kinase Activity: 10(3) %
ROCK-I
  ROCK-1 Kinase Activity: 95(7) %
CaMKI
  CaMK1 Kinase Activity: 8(1) %
MK3; peptide inhibitor 300 μM
  MK3 Kinase Activity: 19(3) %
IRAK4; peptide inhibitor 300 μM, SD of 2 samples
  IRAK4 Kinase Activity: 68(3) %
MLCK
  MLCK Kinase Activity: 66(9) %
